Key:
Assay in all cases: cell-based or functional assay
[1] = biological target: HIV-1 Env of pseudovirus SC422661.8 (HIV-1)
[2] = biological target: HIV-1 Env of pseudovirus CNE52 (HIV-1)
[3] = biological target: HIV-1 Env of pseudovirus 0260.v5.c36 (HIV-1)
[4] = biological target: HIV-1 Env of pseudovirus RHPA4259.7 (HIV-1)
[5] = biological target: HIV-1 Env of pseudovirus BB1012-11.TC21 (HIV-1)
[6] = biological target: HIV-1 Env of pseudovirus Du172.17 (HIV-1)

| Binder | neutralization IC50 [1] [µg/mL] | neutralization IC80 [1] [µg/mL] | neutralization IC50 [2] [µg/mL] | neutralization IC80 [2] [µg/mL] | neutralization IC50 [3] [µg/mL] | neutralization IC80 [3] [µg/mL] | neutralization IC50 [4] [µg/mL] | neutralization IC80 [4] [µg/mL] | neutralization IC50 [5] [µg/mL] | neutralization IC80 [5] [µg/mL] | neutralization IC50 [6] [µg/mL] | neutralization IC80 [6] [µg/mL] |
| --- | --- | --- | --- | --- | --- | --- | --- | --- | --- | --- | --- | --- |
| MS-79 (antibody, V domains shown) VH: QVQLVQSGPEVRKPGTSVKVSCKAPGNTLKTYDLHWVRSVPGQGLQWMGWISHEGDKKVIVERFKAKVTITWDRSTNTAYLQLSGLTSGDTAVYYCAKGSKHRLRDYALYDDDGALNWAVDVDYLSNLEFWGQGTAVTVSS VL: DFVLTQSPHSLSVTPGESASISCKSSHSLIHGDRNNYLAWYVQKPGRSPQLLIYLASSRASGVPDRFSGSGSDKDFTLKISRVETEDVGTYYCMQGRESPWTFGQGTKVDIKR | 0.587 | > 25 | 2.42 | > 25 | 0.028 | 0.159 | 0.221 | 0.792 | 0.019 | 0.08 | 7.28 | > 25 |
| MS-84 (antibody, V domains shown) VH: QVQLVQSGPEVRKPGTSVKVSCKAPGNTLKTYDLHWVRSVPGQGLQWMGWISHEGDKKVIVERFKAKVTIDWDRSTNTAYLQLSGLRSGDTAVYYCAKGSKHRLRDYALYDDDGALNWAVDVDYLSNLEFWGQGTAVTVSS VL: DFVLTQSPLSLPVTPGEPASISCKSSHSLIHGDRNNYLAWYVQKPGQSPQLLIYLASSRASGVPDRFSGSGSDKDFTLKISRVEAEDVGVYYCMQGRESPWTFGQGTKVDIKR | 0.192 | 1.37 | 0.092 | 0.83 | 0.016 | 0.062 | 0.175 | 0.773 | 0.019 | 0.085 | 1.64 | 6.55 |
| MS-88 (antibody, V domains shown) VH: QVQLVQSGPEVRKPGTSVKVSCKASGYTFKTYDLHWVRSVPGQGLQWMGWISHEGDKKVIVERFKAKVTITRDRSTNTAYLQLSGLTSGDTAVYYCAKGSKHRLRDYALYDDDGALNWAVDVDYLSNLEFWGQGTAVTVSS VL: DFVLTQSPHSLSVTPGESASISCKSSHSLIHGDRNNYLAWYVQKPGRSPQLLIYLASSRASGVPDRFSGSGSDKDFTLKISRVETEDVGTYYCMQGRESPWTFGQGTKVDIKR | 1.41 | > 25 | 5.86 | > 25 | 0.178 | 1.51 | 0.504 | 2.51 | 0.02 | 0.088 | > 25 | > 25 |
| MS-82 (antibody, V domains shown) VH: QVQLVQSGPEVRKPGTSVKVSCKAPGNTLKTYDLHWVRSVPGQGLQWMGWISHEGDKKVIVERFKAKVTIDWDRSTNTAYLQLSGLRSGDTAVYYCAKGSKHRLRDYALYDDDGALNWAVDVDYLSNLEFWGQGTAVTVSS VL: DFVLTQSPHSLSVTPGESASISCKSSHSLIHGDRNNYLAWYVQKPGRSPQLLIYLASSRASGVPDRFSGSGSDKDFTLKISRVETEDVGTYYCMQGRESPWTFGQGTKVDIKR | 0.387 | 3.29 | 0.206 | 1.18 | 0.016 | 0.051 | 0.192 | 0.672 | 0.023 | 0.108 | 1.88 | 7 |
| MS-89 (antibody, V domains shown) VH: QVQLVQSGPEVRKPGTSVKVSCKAPGYTLKTYDLHWVRSVPGQGLQWMGWISHEGDKKVIVERFKAKVTITWDRSTNTAYLQLSGLTSGDTAVYYCAKGSKHRLRDYALYDDDGALNWAVDVDYLSNLEFWGQGTAVTVSS VL: DFVLTQSPLSLSVTPGESASISCKSSHSLIHGDRNNYLAWYVQKPGRSPQLLIYLASSRASGVPDRFSGSGSDKDFTLKISRVETEDVGTYYCMQGRESPWTFGQGTKVDIKR | 0.786 | > 25 | 2.34 | 23.8 | 0.036 | 0.197 | 0.29 | 1.04 | 0.032 | 0.143 | 11.9 | > 25 |
| MS-81 (antibody, V domains shown) VH: QVQLVQSGPEVRKPGTSVKVSCKAPGNTLKTYDLHWVRSVPGQGLQWMGWISHEGDKKVIVERFKAKVTIDWDRSTNTAYLELSGLTSGDTAVYYCAKGSKHRLRDYALYDDDGALNWAVDVDYLSNLEFWGQGTAVTVSS VL: DFVLTQSPHSLSVTPGESASISCKSSHSLIHGDRNNYLAWYVQKPGRSPQLLIYLASSRASGVPDRFSGSGSDKDFTLKISRVETEDVGTYYCMQGRESPWTFGQGTKVDIKR | 0.418 | 4.25 | 0.212 | 1.8 | 0.02 | 0.075 | 0.202 | 0.897 | 0.024 | 0.102 | 1.65 | 6.37 |
| MS-85 (antibody, V domains shown) VH: QVQLVQSGPEVRKPGTSVKVSCKAPGNTLKTYDLHWVRSVPGQGLQWMGWISHEGDKKVIVERFKAKVTIDWDRSTNTAYLQLSGLTSGDTAVYYCAKGSKHRLRDYALYDDDGALNWAVDVDYLSNLEFWGQGTAVTVSS VL: DIVLTQSPHSLSVTPGESASISCKSSHSLIHGDRNNYLAWYVQKPGRSPQLLIYLASSRASGVPDRFSGSGSGTDFTLKISRVETEDVGTYYCMQGRESPWTFGQGTKVDIKR | 0.54 | 7.04 | 0.341 | 4.71 | 0.019 | 0.059 | 0.173 | 0.794 | 0.028 | 0.124 | 2.23 | 9.53 |
| MS-83 (antibody, V domains shown) VH: QVQLVQSGPEVRKPGTSVKVSCKAPGNTLKTYDLHWVRSVPGQGLQWMGWISHEGDKKVIVERFKAKVTIDWDRSTNTAYLQLSGLTSGDTAVYYCAKGSKHRLRDYALYDDEGALNWAVDVDYLSNLEFWGQGTAVTVSS VL: DFVLTQSPHSLSVTPGESASISCKSSHSLIHGDRNNYLAWYVQKPGRSPQLLIYLASSRASGVPDRFSGSGSDKDFTLKISRVETEDVGTYYCMQGRESPWTFGQGTKVDIKR | 0.267 | 2.11 | 0.135 | 1.04 | 0.023 | 0.087 | 0.15 | 0.663 | 0.018 | 0.082 | 1.47 | 7.4 |
| MS-87 (antibody, V domains shown) VH: QVQLVQSGPEVRKPGTSVKVSCKAPGNTLKTYDLHWVRSVPGQGLQWMGWISHEGDKKVIVERFKAKVTITRDRSTNTAYLQLSGLTSGDTAVYYCAKGSKHRLRDYALYDDDGALNWAVDVDYLSNLEFWGQGTAVTVSS VL: DFVLTQSPHSLSVTPGESASISCKSSHSLIHGDRNNYLAWYVQKPGRSPQLLIYLASSRASGVPDRFSGSGSDKDFTLKISRVETEDVGTYYCMQGRESPWTFGQGTKVDIKR | 0.711 | 13.9 | 2.69 | > 25 | 0.114 | 1.01 | 0.294 | 1.09 | 0.023 | 0.102 | > 25 | > 25 |
| MS-80 (antibody, V domains shown) VH: QVQLVQSGPEVRKPGTSVKVSCKAPGNTLKTYDLHWVRSVPGQGLQWMGWISHEGDKKVIVERFKAKVTIDRDRSTNTAYLQLSGLTSGDTAVYYCAKGSKHRLRDYALYDDDGALNWAVDVDYLSNLEFWGQGTAVTVSS VL: DFVLTQSPHSLSVTPGESASISCKSSHSLIHGDRNNYLAWYVQKPGRSPQLLIYLASSRASGVPDRFSGSGSDKDFTLKISRVETEDVGTYYCMQGRESPWTFGQGTKVDIKR | 0.451 | > 25 | 5.25 | > 25 | 0.041 | 0.321 | 0.267 | 1.24 | 0.02 | 0.086 | 15.2 | > 25 |
| MS-86 (antibody) VH: not shown VL: DFVLTQSPHSLSVTPGESASISCKSSHSLIHGDRNNYLAWYVQKPGRSPQLLIYLASSRASGVPDRFSGSGSDKDFTLKISRVETEDVGTYYCMQGRESPWTFGQGTKVDIKRTVAAPSVFIFPPSDEQLKSGTASVVCLLNNFYPREAKVQWKVDNALQSGNSQESVTEQDSKDSTYSLSSTLTLSKADYEKHKVYACEVTHQGLSSPVTKSFNRGEC | 1.2 | > 25 | 1.46 | 13.3 | 0.036 | 0.191 | 0.305 | 1.1 | 0.048 | 0.159 | 4.94 | 18.8 |
